Test results as given in the supplement of paper PMC9233669.
Variants at the floor of the assay were thinned out.

Columns and labels:
biotinyl-Phe-oxazolone = assay: self-aminoacylation, catalytic enhancement (BFO) (fold over background); higher = more active; k-Seq, kA / k0A0; sequences stand for … in GGGAAUGGAUCCACAUCUACGAAUUC…UUCACUGCAGACUUGACGAAGCUG
How it was run: (§1)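 Mutagenized RNA pools (0.43 μM; 21-nt variable region) were treated with 2–1250 μM of each biotinyl-aminoacyl-oxazolone. Conditions were 50 μL HEPES/NaCl/KCl/MgCl2/CaCl2 buffer, 5% acetonitrile, pH 6.9–7.0, room temperature, 90 minutes. Catalytic enhancement, the median kA relative to the uncatalyzed rate, was derived from streptavidin capture, qPCR and Illumina sequencing.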

biotinyl-Ile-oxazolone = assay: self-aminoacylation, catalytic enhancement (BIO) (fold over background); higher = more active; k-Seq, kA / k0A0; sequences stand for … in GGGAAUGGAUCCACAUCUACGAAUUC…UUCACUGCAGACUUGACGAAGCUG
How it was run: as §1

biotinyl-Met-oxazolone = assay: self-aminoacylation, catalytic enhancement (BMO) (fold over background); higher = more active; k-Seq, kA / k0A0; sequences stand for … in GGGAAUGGAUCCACAUCUACGAAUUC…UUCACUGCAGACUUGACGAAGCUG
How it was run: as §1

biotinyl-Val-oxazolone = assay: self-aminoacylation, catalytic enhancement (BVO) (fold over background); higher = more active; k-Seq, kA / k0A0; sequences stand for … in GGGAAUGGAUCCACAUCUACGAAUUC…UUCACUGCAGACUUGACGAAGCUG
How it was run: as §1

biotinyl-Leu-oxazolone = assay: self-aminoacylation, catalytic enhancement (BLO) (fold over background); higher = more active; k-Seq, kA / k0A0; sequences stand for … in GGGAAUGGAUCCACAUCUACGAAUUC…UUCACUGCAGACUUGACGAAGCUG
How it was run: as §1

biotinyl-Trp-oxazolone = assay: self-aminoacylation, catalytic enhancement (BWO) (fold over background); higher = more active; k-Seq, kA / k0A0; sequences stand for … in GGGAAUGGAUCCACAUCUACGAAUUC…UUCACUGCAGACUUGACGAAGCUG
How it was run: as §1

Sequence	self-aminoacylation (biotinyl-Phe-oxazolone)	self-aminoacylation (biotinyl-Ile-oxazolone)	self-aminoacylation (biotinyl-Met-oxazolone)	self-aminoacylation (biotinyl-Val-oxazolone)	self-aminoacylation (biotinyl-Leu-oxazolone)	self-aminoacylation (biotinyl-Trp-oxazolone)
CUACUUCAAACAAACGGUUUG [Fam1A.1 aminoacylation ribozyme variant]	0.656	0.803	0.719	0.796	0.67	0.396
CUACUUCAAACAACCGGGCUG [Fam1A.1 aminoacylation ribozyme variant]	2.15	1.46	1.35	1.22	1.27	0.852
CUACUUCAAACAACCGGUCCG [Fam1A.1 aminoacylation ribozyme variant]	0.643	0.993	0.703	1.01	0.962	1
CUACUUCAAACAACCGGUCUU [Fam1A.1 aminoacylation ribozyme variant]	0.875	1.32	0.686	0.899	0.871	1.05
CUACUUCAAACAACCGUUCUG [Fam1A.1 aminoacylation ribozyme variant]	0.558	0.723	0.611	0.676	0.625	0.515
CUACUUCAAACAAGCGCUCUG [Fam1A.1 aminoacylation ribozyme variant]	0.571	0.868	0.654	0.86	0.852	0.842
CUACUUCAAACAAGUGGUCUG [Fam1A.1 aminoacylation ribozyme variant]	0.734	0.968	0.7	0.919	0.885	0.516
CUACUUCAAACAAUAGGACUG [Fam1A.1 aminoacylation ribozyme variant]	0.544	0.633	0.6	0.625	0.585	0.515
CUACUUCAAACAAUAGGGCUG [Fam1A.1 aminoacylation ribozyme variant]	0.8	0.844	0.557	0.631	0.523	0.391
CUACUUCAAACAAUCCGUCGG [Fam1A.1 aminoacylation ribozyme variant]	1.23	0.947	0.867	0.98	0.901	0.636
CUACUUCAAACAAUCCGUCUA [Fam1A.1 aminoacylation ribozyme variant]	1.07	0.801	0.611	0.88	0.651	0.596
CUACUUCAAACAAUCGAUCAG [Fam1A.1 aminoacylation ribozyme variant]	1.15	0.554	0.497	0.654	0.659	0.617
CUACUUCAAACAAUCGCGCUG [Fam1A.1 aminoacylation ribozyme variant]	1.59	1.47	1.52	1.35	1.88	1.1
CUACUUCAAACAAUCGCUAUG [Fam1A.1 aminoacylation ribozyme variant]	1.32	0.99	0.958	0.973	0.878	0.755
CUACUUCAAACAAUCGCUCGG [Fam1A.1 aminoacylation ribozyme variant]	0.822	1.02	0.763	0.954	0.768	0.747
CUACUUCAAACAAUCGGACUC [Fam1A.1 aminoacylation ribozyme variant]	5.7	0.675	0.563	0.7	0.624	2.57
CUACUUCAAACAAUCGGCUUG [Fam1A.1 aminoacylation ribozyme variant]	2.59	1.27	1.1	1.35	1.21	2.53
CUACUUCAAACAAUCGGUCAU [Fam1A.1 aminoacylation ribozyme variant]	4.39	0.892	0.666	1.01	0.892	1.88
CUACUUCAAACAAUCGGUCGA [Fam1A.1 aminoacylation ribozyme variant]	14.9	0.884	0.807	0.974	0.992	6.82
CUACUUCAAACAAUCGUUCUA [Fam1A.1 aminoacylation ribozyme variant]	1.08	0.582	0.545	0.801	0.559	0.631
CUACUUCAAACAAUUGGUGUG [Fam1A.1 aminoacylation ribozyme variant]	1.52	1.19	1.24	1.12	1.62	1.23
CUACUUCAAACACUCCGUCUG [Fam1A.1 aminoacylation ribozyme variant]	0.78	0.772	0.845	0.869	0.727	0.771
CUACUUCAAACAGUCGGUAUG [Fam1A.1 aminoacylation ribozyme variant]	0.447	0.6	0.587	0.552	0.532	0.554
CUACUUCAAACAUUCAGUCUG [Fam1A.1 aminoacylation ribozyme variant]	0.971	1.04	0.734	0.812	0.741	0.602
CUACUUCAAACAUUCGGUAUG [Fam1A.1 aminoacylation ribozyme variant]	0.64	0.968	0.993	1.12	1.05	0.924
CUACUUCAAACAUUCGGUGUG [Fam1A.1 aminoacylation ribozyme variant]	8.08	1.4	1.82	1.51	1.73	1.39

Sequence	self-aminoacylation (biotinyl-Phe-oxazolone)	self-aminoacylation (biotinyl-Ile-oxazolone)	self-aminoacylation (biotinyl-Met-oxazolone)	self-aminoacylation (biotinyl-Val-oxazolone)	self-aminoacylation (biotinyl-Leu-oxazolone)	self-aminoacylation (biotinyl-Trp-oxazolone)
CUACUUCAAACAUUGGGUCUG [Fam1A.1 aminoacylation ribozyme variant]	0.555	0.914	0.944	0.977	0.868	0.716
CUACUUCAAACAUUUGGUCUG [Fam1A.1 aminoacylation ribozyme variant]	0.677	1.13	0.873	0.984	0.802	0.678
CUACUUCAAACCAUCGGCCUG [Fam1A.1 aminoacylation ribozyme variant]	1.51	1.82	1.63	1.94	1.45	1.71
CUACUUCAAACCAUCGGUCAG [Fam1A.1 aminoacylation ribozyme variant]	0.853	0.67	0.609	0.771	0.488	0.762
CUACUUCAAACCAUCGGUGUG [Fam1A.1 aminoacylation ribozyme variant]	1.24	1.08	1.11	1.1	1.52	0.938
CUACUUCAAACGAGCGGUCUG [Fam1A.1 aminoacylation ribozyme variant]	0.761	0.8	0.943	1.02	0.689	0.477
CUACUUCAAACGAUCGGCCUG [Fam1A.1 aminoacylation ribozyme variant]	1.59	1.55	1.33	1.66	1.96	2.08
CUACUUCAAACUAUCGAUCUG [Fam1A.1 aminoacylation ribozyme variant]	0.945	0.736	0.57	0.728	0.596	0.369
CUACUUCAAACUAUCGCUCUG [Fam1A.1 aminoacylation ribozyme variant]	0.781	0.732	0.609	0.786	0.678	0.664
CUACUUCAAACUAUCGGUUUG [Fam1A.1 aminoacylation ribozyme variant]	0.88	0.944	0.748	0.961	0.829	0.697
CUACUUCAAACUAUGGGUCUG [Fam1A.1 aminoacylation ribozyme variant]	0.588	0.917	0.789	0.813	0.922	0.592
CUACUUCAAAGAAUAGGUCUG [Fam1A.1 aminoacylation ribozyme variant]	0.944	0.816	0.784	0.746	0.699	0.59
CUACUUCAAAGAAUCGGUCGG [Fam1A.1 aminoacylation ribozyme variant]	1.37	0.763	0.844	0.795	1.05	1.12
CUACUUCAAAGAAUCGGUGUG [Fam1A.1 aminoacylation ribozyme variant]	1.04	0.994	0.905	0.803	1.28	1.02
CUACUUCAAAUAAUCAGUCUG [Fam1A.1 aminoacylation ribozyme variant]	8.19	0.956	0.717	0.935	0.891	3.71
CUACUUCAAAUAAUCGGCCUG [Fam1A.1 aminoacylation ribozyme variant]	14.5	1.11	0.902	0.985	1.36	12
CUACUUCAAAUCAUCGGUCUG [Fam1A.1 aminoacylation ribozyme variant]	0.771	0.876	0.83	0.855	0.917	0.65
CUACUUCAACCAAGCGGUCUG [Fam1A.1 aminoacylation ribozyme variant]	0.739	1.02	0.907	0.954	0.942	0.8
CUACUUCAACCAAUCGGUCCG [Fam1A.1 aminoacylation ribozyme variant]	6.1	0.867	1.26	0.799	1.22	5.57
CUACUUCAACCUAUCGGUCUG [Fam1A.1 aminoacylation ribozyme variant]	1.32	1.01	1.03	0.884	0.79	1.02
CUACUUCAAGCGAUCGGUCUG [Fam1A.1 aminoacylation ribozyme variant]	0.917	0.77	0.769	0.781	0.799	0.654
CUACUUCAAGGAAUCGGUCUG [Fam1A.1 aminoacylation ribozyme variant]	8.77	1.54	1.64	1.42	1.97	3.64
CUACUUCAAUCAAUCAGUCUG [Fam1A.1 aminoacylation ribozyme variant]	16.5	0.942	0.809	0.86	0.946	6.4
CUACUUCAAUCAAUCGGUCUU [Fam1A.1 aminoacylation ribozyme variant]	19.8	1.23	1.07	1.11	1.35	10.6
CUACUUCAAUCAAUCGGUGUG [Fam1A.1 aminoacylation ribozyme variant]	7.44	1.18	1.19	1.27	1.83	4.96
